In the RNAGym collection of RNA variant scans (doi:10.1073/pnas.2313332121):

B1: TPR t1 (parent)
chain: GACCAAUCUGCCCUCAGAGCUCGAGAACAUCUUCGGAUGCAGAGGAGGCAGGCUUCGGUGGCGCGAUAGCGCCAACGUCCUCAACCUCCAAUGCAUCCCACCACAUGAUGAUGCCUGAAGAGCCUUGGUUUUUUG

Variants of: B1
Assay: polymerase ribozyme fitness, log enrichment relative to wild type (log ratio); higher = more active; in vitro selection for triplet polymerase activity
How it was run: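 PCR was used to build mutant libraries for each subunit of a heterodimeric triplet polymerase ribozyme, which were then transcribed. A single in vitro selection round, in triplicate, used a frozen incubation at −7 °C and recovered extended constructs by gel excision, streptavidin beads and RT-PCR. Fitness is the logarithm of genotype enrichment relative to wild-type enrichment, averaged over replicates with inverse-variance weights. The logarithm is base 2, and after Illumina sequencing only genotypes with ≥10 input reads and ≥1 read per output were kept.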

Point of comparison: U54C U87A, “polymerase ribozyme fitness (log ratio)” value 0.213. Against it:
- C56A C85G U92C — lower, -4.74
- C56A G69A G117U — lower, -6.41
- U54G G63C C86G C114A U133C — lower, -3.86
- C56A G128U U129G — lower, -0.991
- C56A A95C U106A G128A — lower, -3.3
- U55A G63A C73A — lower, -1.05
- C56A C82G A91C G93C — lower, -3.53
- U55A U59C G135U — lower, -1.36
- C56A G93U U112A U116G — lower, -3.29
- U54G G69U A121C U126A — lower, -0.813
- U55G C72U — lower, -0.317
- U55G C56A U106A — lower, -1.04
- C56G C79A — lower, -1.17
- C56A A74C C98U — lower, -0.178
- U55G U109A — lower, -5.03
- U55G G71A C101A — lower, -1.24
- U55G U132C — lower, -0.153
- U54C C70A C82A G128U — lower, -5.17
- U54A U112A G117C — lower, -3.84
- U54G C72U C97U — lower, -0.381
- C56G A66U C88U C115A — lower, -1.49
- C56A U81A A83C — lower, -2.85
- U55G A90C U92G C101A — lower, -3.67
- U55C G60A C82A — lower, -0.172
- U54G C115U — lower, -0.94
- U54C U59C A119G — higher, 1.11
- C56A C72G U106A — lower, -1.22
- U55G C72U C88G — lower, -1.33
- U55G C85A U92G U106A — lower, -5.73
- U55C C70U — lower, -0.302
- U55G G61C — lower, -1.85
- U55G U87A C98G U109G A121C — lower, -6.47
- C56A G120C A121U U131A — lower, -0.425
- C56A C86A G120C — within 0.2 log units, 0.246
- C56A A111U — lower, -3.34
- C56A A111C — lower, -0.279
- U55C A111U A119C — lower, -5.71
- C56G A74G — lower, -1.5
- C56G C70U C88U U106A U133A — lower, -1.55
- C56G A84G — lower, -1.43
- U54C G77C C104U — lower, -0.638
- U54G U55G G60C C85U — lower, -6.29
- C56A C70U C80U G120C C123G — lower, -1.95
- C56G C85U A121U — higher, 0.921
- U54A U87G C123A — higher, 0.724
- C56A A84C — lower, -1.1
- U55A G117A — lower, -1.34
- U54C C73A A121U — higher, 2.33
- U54C C88U C94A C101U — lower, -0.155
- C56A U129C — lower, -0.603
- C56A U129A — lower, -1.22
- U54G U55G C73U C102G G110U G120C — lower, -6.74
- C56A G71U U81G A111C A119G G135A — lower, -4.66
- U55G C85U — lower, -0.919
- U54C G110A — lower, -1.29
- C56A C76A — lower, -0.802
- C56A A105C — lower, -3.61
- C56G C72G — lower, -2.27
- C56G C72U — lower, -1.05
- U54G C97U — lower, -0.558
- U54G G60A — lower, -4.1
- U55G C99U — lower, -2.45
- C56A G71U C85U C102A C124U — lower, -4.27
- C56A C79U U87A — lower, -0.983
- U54C U109G — lower, -5.15
- C56G C72A G110U A111G — lower, -2.87
- U55A A74G C82G C123G — higher, 1.26
- C56A G63A C89U — lower, -3.22
- U55G A121C G135U — higher, 1.07
- C56A G69U U78A A90C C97A A118U — lower, -4.65
- U54G A68C C101A G113U — lower, -7.46
- C56A C82A C97U U129G — lower, -2.1
- U54A U106A — lower, -1.04
- U54C A84G U116G — lower, -2.35
- C56A C72G G77C C98U G128A — lower, -3.6
- C56A U87A U92A G120A A121U U131A — lower, -4.2
- U54G C56A — lower, -1.48
- C56G A95G A111U — lower, -2.63
- U54G G93U A95C C101A G120A — lower, -2.9
- C56G C79G C124U — lower, -0.0923
- C56A C97G — lower, -4.2
- U54C G61C A75U — within 0.2 log units, 0.0964
- C56G C64U C79A — lower, -1.17
- U55G C70U C89A C104U — lower, -2.38
- C56A A121C — higher, 0.751
- C56A G69U — lower, -0.137
- C56A G69C — lower, -3.89
- U54G U55G C73A C102G G110U G120C — lower, -7.7
- C56A U78G C86A G120U — lower, -0.426
- U55G G60A C89A C114A — lower, -2.87
- U54G A108U — lower, -5.9
- C56A A84U C94A C114A — lower, -3.7
- U55A U81A — lower, -0.637
- U55C U92G — lower, -2.25
- U55A C124G — higher, 1.88
- U54G G113C U126C — lower, -3.09
- U54G A105G U112A C123G C124A U132C — lower, -2.09
- C56A C114A G135A — lower, -2.55
- C56A C62G — lower, -3.98
- C56A C62U — lower, -0.164
- C56A C102U — lower, -1.54
- C56A C62G C88U — lower, -3.82
- U54C G71U C97G C123U — lower, -4.02
- U55A C73U C85A C115G — lower, -3.38
- C56A C94G C101A U116G — lower, -4.75
- U55G C56U — lower, -0.601
- U54C C56A C89U — lower, -0.439
- U54C G122A — lower, -0.596
- C56A G69U C88G C115U — lower, -1.62
- U55C G57A G69U C89U G110U U129A — lower, -3.64
- U55A G71C — lower, -1.29
- C56A G69A A84G A121C — lower, -3.85
- U54C G77U — lower, -0.352
- C56A U116C — lower, -0.712
- C56A U116A — lower, -3.29
- U54C G57C C72G U112C — higher, 0.604
- U55G C104U G113C C123A — lower, -3.72
- U55A C85G C86G U112G G128A — lower, -2.76
- C56A G60U G113A — lower, -1.2
- U55C G69C C79A — lower, -3.59
- C56A G77C C124A — higher, 1.47
- U54G G71U A75C C98U U125C — lower, -4.29
- U55A C104A G113C G122U — lower, -3.73
- C56G C85U — lower, -0.934
- C56G C85A — lower, -2.26
- C56A C73A C124G U125C U126A — lower, -2.94
- C56G C70G — lower, -3.88
- C56G C70A — lower, -3.64
- U55A C79A U125G U133G — lower, -4.8
- C56A G71U C82U — lower, -1.78
- U54C — within 0.2 log units, 0.321
- U54G — lower, -0.214
- U55G A103C — lower, -4.87
- C56A C72G U78C — lower, -1.29
- U55C C115G G122A — lower, -1.84
- C56A U92G C101G A121G — lower, -4.49
- U55G C72U U87C G107U — lower, -4.49
- U55A G69C U87G G93U — lower, -1.37
- C56G C70U U96A U132A — lower, -3.39
- C56A U78C G93A C123U — higher, 1.38
- U55C G57U U59A C89U — lower, -2.23
- C56A C80U — lower, -1.23
- C56A C80G — lower, -2.82
- U55A U81A G113A — lower, -2.4
- C56A U78G — lower, -0.153
- C56A G77C C98U G128A — lower, -3.89
- U54G G61A C86G — lower, -5.3
- U55C A111U G117A — lower, -6.33
- C56A C73U — higher, 0.483
- C56A C73A — lower, -0.651
- U54G C64U — lower, -3.4
- U55G C123G — higher, 2.06
- U55C A90G C94G G110C U116A A121G — lower, -5.82
- C56A C101U U106C A111C — lower, -0.932
- U55G U81A A119U — lower, -1.33
- U54G G57A C72G C114U — lower, -5.48
- C56G C72A C79U G117U — lower, -4.93
- C56A C64A G93A C104A U109G A111C — lower, -5.87
- U54A U96A G113C C123U U126A — lower, -4.27
- C56A G117A — lower, -2.11
- C56A G117U — lower, -2.01
- C56A G117C — lower, -3.44
- U55A G63C C98U G113U — lower, -4.52
- C56A G61A — lower, -1.51
- C56A C73U C124U — higher, 1.55
- U54G C62A A95C A121G — lower, -6.12
